# Experimental data from publication PMC4373775.
# Target: T1, ParB (Mycobacterium tuberculosis H37Rv) (UniProt P9WIJ9)
# T1 sequence: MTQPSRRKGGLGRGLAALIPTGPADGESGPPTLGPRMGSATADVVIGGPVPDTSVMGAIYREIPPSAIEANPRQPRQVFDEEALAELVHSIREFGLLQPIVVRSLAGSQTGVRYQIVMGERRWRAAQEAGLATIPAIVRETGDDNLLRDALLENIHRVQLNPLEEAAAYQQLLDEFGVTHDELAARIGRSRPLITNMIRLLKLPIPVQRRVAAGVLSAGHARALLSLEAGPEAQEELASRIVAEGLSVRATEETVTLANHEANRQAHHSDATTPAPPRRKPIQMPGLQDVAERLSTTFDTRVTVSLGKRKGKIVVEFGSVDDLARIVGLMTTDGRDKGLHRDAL
# Assay: EMSA
sequence,measurement,value
GCGAGTGGAGGGACGGCGTGAGTGCTCCGTGGGGCCCGGTGGCCGCTGGACCGTCCGCGCTCGTAAGGTCGGGCCAGGCTTCAACTATCGAACCATTCCAGCGGGAAATGACACCACCGACACCGACGCCTGAGGCCGCGCACAATCCGACGATGAATGTTTCACGTGAAACATCGACAGAATTCGACACCCCCATCGGCGCTGCAGCAGAACGTGCGATGCG (double strand) [parS probe],binding,binds
